In this experiment the target is T1, human HER2 extracellular domain, soluble, His-tagged (Homo sapiens).
T1 construct: human HER2 (ERBB2) extracellular domain, subdomains I-IV; the electron density covers amino acids 1 to 575, leaving the last 55 residues invisible; About 86 kDa, of which 17 kDa glycan; The purified His-tagged HER2 (crystals, AUC); also called HER2 ecd; soluble HER2; source: HEK293F; purified (IMAC, Superdex200) for crystals; cell culture supernatant for SPR
In words: AUC; multisignal sedimentation velocity (MSSV), 4:1 molar loading of HER2 to antibody (5.8:1.4 μM), PBS, 20 °C, 42,000 rpm, UV 280 and 250 nm and interference, SEDPHAT. The settings on record: both partners purified.

The term stoichiometry N denotes a count of units in the complex or per binding partner.

B1: anti-HER2 fully human mAb 39S (IgG1κ) (antibody, V domains shown)
VH: EVQLVESGGGLVKPGGSLRLSCAASGFTFSSYSMSWVRQAPGKGLEWVSSISSSSSYIYYADSVKGRFTISRDNAKNSLYLQMNSLRAEDTAVYYCARGGDAYNYYYFDYWGQGTLVTVSS
VL: DIVMTQTPLSLSVTPGQPASISCKSSQSVFFRSNNKNILAWYLQKPGQPPQLLIYWASSRESGVPDRFSGSGSGTDFTLKISRVEAEDVGVYYCQQYFGSPFTFGPGTKVDIK
notes: variable domain of the 39S heavy chain; as in the heavy chain of m1 (PDB 6ATT); human IgG1 heavy chain constant region (its CH1 is also in the heavy chain of PDB 6ATT); whole kappa light chain of 39S; as the light chain of m1 (PDB 6ATT); IgG1 kappa, about 148 kDa; also called 39S mAb; Antibody 39S
For the molecule B1, the “stoichiometry N” value was 2 HER2 per 39S mAb.

(Values after article PMC5986207, “Structural insights into the mechanism of action of a biparatopic anti-HER2 antibody” (The Journal of Biological Chemistry, 2018).)
